Test results reported in US20120058499A1, “Bioluminescent Detection of Protease Activity” (priority 2010, published 2012).

Biological target: Ub(1-76)-aminoluciferin (human) (UniProt P0CG48)
Experiment: cell-based or functional assay

Substance: UCHL3 (ubiquitin carboxyl-terminal hydrolase isozyme L3) (from UniProt P15374 1-230) (enzyme)
- fold decrease in limit of detection against Z-RLRGG-amino-luciferin: 1000 fold
